For one data set, the target named is T1, PcrA helicase (UniProt P56255 1-724).
T1 sequence: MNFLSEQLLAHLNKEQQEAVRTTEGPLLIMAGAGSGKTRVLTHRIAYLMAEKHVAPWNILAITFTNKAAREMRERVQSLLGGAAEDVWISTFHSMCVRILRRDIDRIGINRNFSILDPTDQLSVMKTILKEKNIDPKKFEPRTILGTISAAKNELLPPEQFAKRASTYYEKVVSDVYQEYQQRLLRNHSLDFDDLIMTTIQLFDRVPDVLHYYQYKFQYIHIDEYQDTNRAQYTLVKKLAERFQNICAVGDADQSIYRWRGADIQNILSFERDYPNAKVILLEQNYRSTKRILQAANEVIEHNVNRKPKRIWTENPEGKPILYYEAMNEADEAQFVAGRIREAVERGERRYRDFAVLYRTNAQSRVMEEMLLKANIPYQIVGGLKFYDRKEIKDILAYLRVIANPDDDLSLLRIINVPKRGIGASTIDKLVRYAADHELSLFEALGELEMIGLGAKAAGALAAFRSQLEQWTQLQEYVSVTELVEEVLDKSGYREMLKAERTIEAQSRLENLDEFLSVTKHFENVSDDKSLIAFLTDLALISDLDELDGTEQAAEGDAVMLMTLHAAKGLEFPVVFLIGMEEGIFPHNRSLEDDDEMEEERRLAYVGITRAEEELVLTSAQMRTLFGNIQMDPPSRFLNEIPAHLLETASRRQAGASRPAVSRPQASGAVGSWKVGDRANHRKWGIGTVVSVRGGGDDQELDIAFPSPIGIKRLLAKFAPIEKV
Kind of data set: not stated in material.

A further data set addresses T2, RepD (Staphylococcus aureus, UniProt P03065).
T2 chain: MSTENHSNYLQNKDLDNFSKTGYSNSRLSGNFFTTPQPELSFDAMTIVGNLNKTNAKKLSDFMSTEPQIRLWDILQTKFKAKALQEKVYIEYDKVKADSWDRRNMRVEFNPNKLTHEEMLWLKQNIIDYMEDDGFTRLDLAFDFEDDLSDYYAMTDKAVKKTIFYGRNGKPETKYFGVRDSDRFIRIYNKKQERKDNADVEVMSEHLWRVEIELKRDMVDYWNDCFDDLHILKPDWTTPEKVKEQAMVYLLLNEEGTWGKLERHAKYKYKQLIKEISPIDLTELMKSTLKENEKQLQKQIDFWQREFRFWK
Kind of data set: fluorescence anisotropy.

TTTTTTTTTT (ssDNA) [dT10]: the Kd in the data set with PcrA helicase came to 240 nM.

B1: PcrA (protein)
chain: T1 sequence
modifications: DNA junction
On to B1, for which the affinity with RepD, expressed as Kd, was 22 nM.

These data come from PMC2776994 (2009).
